Test results taken from patent US20250215105A1, “ANTI-CD39 ANTIBODY” (BrightPath Biotherapeutics Co., Ltd., priority 2022, published 2025).
pKd: −log10 of the molar value.

Target: FcγRIIIa (Human) (UniProt P08637)
Assay: SPR

Chain of FcγRIIIa (Human) (P08637 17-208 F176V): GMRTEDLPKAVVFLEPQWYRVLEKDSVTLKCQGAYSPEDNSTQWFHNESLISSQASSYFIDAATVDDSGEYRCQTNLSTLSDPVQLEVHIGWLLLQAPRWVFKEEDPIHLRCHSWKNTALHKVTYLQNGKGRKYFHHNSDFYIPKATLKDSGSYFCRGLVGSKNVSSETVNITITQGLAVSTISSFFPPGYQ

pKd: 6.81
Substance: Mogamulizumab
